Data reported in publication PMC3424236, “Siderocalin/Lcn2/NGAL/24p3 Does Not Drive Apoptosis Through Gentisic Acid Mediated Iron Withdrawal in Hematopoietic Cell Lines” (PLoS ONE, 2012).

Target: T1, Scn (Mus musculus, UniProt P11672)
T1 construct: made in house; host or cells: E. coli
T1 sequence (P11672 21-200): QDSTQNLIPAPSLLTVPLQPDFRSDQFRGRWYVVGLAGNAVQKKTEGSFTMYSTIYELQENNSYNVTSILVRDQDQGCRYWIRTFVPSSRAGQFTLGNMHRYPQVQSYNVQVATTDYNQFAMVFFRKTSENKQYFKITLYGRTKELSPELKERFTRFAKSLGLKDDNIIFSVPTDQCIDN
Assay: Binding of BOCT subdomains and loop peptides to Scn (SPR, SEC)
Parameters: species or system murine
Procedure: NTD^1–102 and CTD^477–520 were expressed recombinantly in E. coli, the former as a His-tagged, periplasmically-targeted construct and the latter as a cytoplasmically-targeted, cleavable GST-fusion (Figures 5C and 5D). Binding of NTD or CTD to Scn was assayed by SEC (e. g., Figure 5E) and SPR (e. g., Figure 5D). In Figure 5D, 2086 SPR response units (RUs) of Scn were amine-coupled to CM5 sensor chips (Biacore) following the manufacturer’s protocol. CTD analytes, at concentrations from 3.125 to 50 µM, were injected in duplicate, in random order, for one minute at a flow rate of 20 µl/min on a Biacore 3000 system. Sensorgrams were blank-corrected by the double-subtraction method, using a capped channel as blank. […] Peptides corresponding to predicted cell-surface loops of significant length (>6 residues) in either topology were synthesized commercially (Genscript) with N-terminal biotin groups:
BOCT loop peptides were coupled to strepavidin-coated sensor chips and analyzed with Scn analytes using analogous methodology; as above, no quantifiable responses were detected (data not shown).

binding to Scn (SPR, SEC): Comparable results
B1: NTD: BOCT N-terminal domain, residues 1 through 102, recombinantly expressed in E. coli (protein)
chain: MPSARFGRRGIVLLTLGLVGPCGVGGAAAGSSTGIMALRFLLGFLLAGVDLGVYLMRLELCDPTQRLRVALAGELVGVGGHFLFLGLALVSKDWRFLQRMIT
modifications: left off: His tag, end not stated, state not stated
notes: BOCT N-terminal domain, residues 1 through 102, recombinantly expressed in E. coli
